Substitutions are numbered along the chain they refer to.

Four molecules from patent US20150368329A1 (ONCOMED PHARMACEUTICALS, published 2015) can be followed below.

Assay [1] has as its target recombinant mouse VEGF165 (mouse) (UniProt Q00731). Put plainly: SPR (Biacore 2000); biotinylated VEGF165 on streptavidin chip, antibody injected 100-0.78 nM. A general note: SPR reads the build-up and loss of mass on a sensor chip optically.
The target in assay [2] is VEGF (ATGEN, South Korea) coated on ELISA plates (UniProt P15692-4 27-191, limits assumed). Put plainly: bridging ELISA: the signal needs binding to both coated VEGF and biotin-DLL4-hFc (2 ug/ml); antibody concentration varied. As for the experimental part:
(§1) FIG. 5. Bispecific antibody ELISA. Bispecific antibodies 219R45-MB-21M18, 219R45-MB-21R79, 219R45-MB-21R75, and 219R45-MB-21R83 were diluted in blocking buffer (lx PBS, 0.1% gelatin, 0.1% Polysorbate-20, pH 7.4) containing 2 μg/ml biotin-DLL4-hFc. 219R45-MB-21M18 (open circles), 219R45-MB-21R79 (open squares), 219R45-MB-21R75 (open triangles), and 219R45-MB-21R83 (open diamonds) in comparison to a reference anti-VEGF/anti-DLL4 bispecific antibody (solid circles) is shown. The antibodies were serially diluted 3-fold from 500 ng/ml to 0.008 ng/ml. The antibody samples were incubated for 2 hours in blocking buffer containing the biotin-DLL4-hFc. After incubation, the antibody samples were transferred to a VEGF-coated assay plate (100 ul/well) and incubated for 2 hours. Streptavidin-HRP was added to each well and incubated for 1 hr. TMB substrate was added to the wells with a 10 minute color development and the reaction was stopped with 2M sulfuric acid. Absorbance was read at 450-650 nm and the data analyzed using the 4-parameter fit within the Softmax Pro analysis program.
(§2) VEGF (ATGEN, South Korea) was coated onto Nunc maxisorb plates at 2ug/ml (100 μl/well) and incubated overnight at 2-8° C. Bispecific antibodies 219R45-MB-21M18, 219R45-MB-21R79, 219R45-MB-21R75, and 219R45-MB-21RS3 were diluted in blocking buffer (1×PBS, 0.1% gelatin, 0.1% Polysorbate-20, pH 7.4) containing 2 μg/ml biotin-DLL4-hFc. The antibodies were serially diluted 3-fold from 500 ng/ml to 0.008 ng/ml. The antibody samples were incubated for 2 hours in blocking buffer containing the biotin-DLL4-hFc. After incubation, the antibody samples were transferred to the VEGF-coated assay plate (100 μl/well) and incubated for 2 hours. Streptavidin-HRP (Jackson ImmunoResearch, West Grove, Pa.) was added to each well and incubated for 1 hr. TMB substrate was added to the wells with a 10 minute color development and the reaction was stopped with 2M sulfuric acid. Absorbance was read at 450-650 nm and the data analyzed using the 4-parameter fit within the Softmax Pro analysis program (Molecular Devices, Sunnyvale, Calif.).

A further assay deals with T1, biotin-DLL4-hFc (UniProt Q9NR61 27-522, limits assumed, biotinylated).
T1 construct: not shown: human Fc ('hFc')
T1 sequence (Q9NR61 27-522 limits assumed): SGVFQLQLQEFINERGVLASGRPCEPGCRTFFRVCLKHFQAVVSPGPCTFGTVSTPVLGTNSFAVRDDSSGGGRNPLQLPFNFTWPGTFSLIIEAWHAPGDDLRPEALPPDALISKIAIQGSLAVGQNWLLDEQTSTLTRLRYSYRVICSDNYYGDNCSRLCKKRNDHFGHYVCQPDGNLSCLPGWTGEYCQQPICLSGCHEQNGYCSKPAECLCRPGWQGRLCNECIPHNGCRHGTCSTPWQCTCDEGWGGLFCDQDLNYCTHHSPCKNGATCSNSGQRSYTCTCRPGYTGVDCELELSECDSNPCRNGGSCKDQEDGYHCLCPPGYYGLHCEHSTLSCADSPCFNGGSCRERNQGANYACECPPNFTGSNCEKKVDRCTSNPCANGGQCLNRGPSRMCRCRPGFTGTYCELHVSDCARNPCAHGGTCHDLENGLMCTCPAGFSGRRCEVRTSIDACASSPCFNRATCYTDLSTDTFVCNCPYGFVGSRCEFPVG
The assay is described as above. The protocol: as §1, §2

Sequence of VEGF (ATGEN, South Korea) coated on ELISA plates (P15692 other isoform, or with tags, fused parts or gaps limits assumed): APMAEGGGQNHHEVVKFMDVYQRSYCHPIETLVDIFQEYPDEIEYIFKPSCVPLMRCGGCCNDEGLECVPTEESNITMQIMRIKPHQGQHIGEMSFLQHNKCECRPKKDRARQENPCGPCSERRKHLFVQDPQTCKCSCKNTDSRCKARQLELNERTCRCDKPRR

B1: anti-VEGF/anti-DLL4 bispecific antibody 219R45-MB-21M18 (bispecific antibody, human IgG2)
heavy 1: QVQLVQSGAEVKKPGASVKVSCKASGYTFTNYWMHWVRQAPGQGLEWMGDINPSNGRTSYKEKFKRRVTLSVDKSSSTAYMELSSLRSEDTAVYFCTIHYDDKYYPLMDYWGQGTLVTVSSASTKGPSVFPLAPCSRSTSESTAALGCLVKDYFPEPVTVSWNSGALTSGVHTFPAVLQSSGLYSLSSVVTVPSSNFGTQTYTCNVDHKPSNTKVDKTVERKCCVECPPCPAPPVAGPSVFLFPPKPKDTLMISRTPEVTCVVVDVSHEDPEVQFNWYVDGVEVHNAKTKPREEQFNSTFRVVSVLTVVHQDWLNGKEYKCKVSNKGLPAPIEKTISKTKGQPREPQVYTLPPSREKMTKNQVSLTCLVKGFYPSDIAVEWESNGQPENNYKTTPPMLKSDGSFFLYSKLTVDKSRWQQGNVFSCSVMHEALHNHYTQKSLSLSPGK
heavy 2: QVQLVQSGAEVKKPGASVKISCKASGYSFTAYYIHWVKQAPGQGLEWIGYISSYNGATNYNQKFKGRVTFTTDTSTSTAYMELRSLRSDDTAVYYCARDYDYDVGMDYWGQGTLVTVSSASTKGPSVFPLAPCSRSTSESTAALGCLVKDYFPEPVTVSWNSGALTSGVHTFPAVLQSSGLYSLSSVVTVPSSNFGTQTYTCNVDHKPSNTKVDKTVERKCCVECPPCPAPPVAGPSVFLFPPKPKDTLMISRTPEVTCVVVDVSHEDPEVQFNWYVDGVEVHNAKTKPREEQFNSTFRVVSVLTVVHQDWLNGKEYKCKVSNKGLPAPIEKTISKTKGQPREPQVYTLPPSREEMTKNQVSLTCLVEGFYPSDIAVEWESNGQPENNYKTTPPMLDSDGSFFLYSELTVDKSRWQQGNVFSCSVMHEALHNHYTQKSLSLSPGK
light: DIVMTQSPDSLAVSLGERATISCRASESVDNYGISFMKWFQQKPGQPPKLLIYAASNQGSGVPDRFSGSGSGTDFTLTISSLQAEDVAVYYCQQSKEVPWTFGGGTKVEIKRTVAAPSVIFPPSDEQLKSGTASVVCLLNNFYPREAKVQWKVDNALQSGNSQESVTEQDSKDSTYSLSSTLTLSKADYEKHKVYACEVTHQGLSSPVTKSFNRGEC
With B1, the Kd (in general, the equilibrium constant for the complex coming apart) in assay [1] worked out at 25.5 nM. The “EC50 (read off the curve)” value (in assay [2]; with biotin-DLL4-hFc) was roughly 4 ng/mL in each case.

B2: anti-VEGF/anti-DLL4 bispecific antibody 219R45-MB-21R79 (bispecific antibody, human IgG2)
heavy 1: B1 heavy 1
heavy 2: B1 heavy 2 with S52A, S53N, G56R
light: B1 light
As to B2, in assay [1], the Kd was determined as 12.5 nM.

B3: anti-VEGF/anti-DLL4 bispecific antibody 219R45-MB-21R75 (bispecific antibody, human IgG2)
heavy 1: B1 heavy 1
heavy 2: B1 heavy 2 with S52A, S53G, N55K, G56D
light: B1 light
notes: Monovalent/bispecific IgG2 heterodimer
With B3, the “EC50 (read off the curve)” value (in assay [2]; with biotin-DLL4-hFc) was roughly 0.7 ng/mL each time.

B4: anti-VEGF antibody 219R45 (parental, IgG format) (antibody, V domains shown)
VH: QVQLVQSGAEVKKPGASVKVSCKASGYTFTNYWMHWVRQAPGQGLEWMGDINPSNGRTSYKEKFKRRVTLSVDKSSSTAYMELSSLRSEDTAVYFCTIHYDDKYYPLMDYWGQGTLVTVSS
VL: DIVMTQSPDSLAVSLGERATISCRASESVDNYGISFMKWFQQKPGQPPKLLIYAASNQGSGVPDRFSGSGSGTDFTLTISSLQAEDVAVYYCQQSKEVPWTFGGGTKVEIKR
B4: the Kd in assay [1] came out at 22.9 nM.
